From patent US20110039779A1 (published 2011)
Where no end group is shown, it is not given here. [ ]: non-standard residue; d: D form. AEEA = NCCOCCOCC(=O)O

How the values were obtained:
IGF-1R on SW480 cells = IGF-1R on SW480 cells (UniProt P08069 31-1367, limits assumed); assay: cell-based or functional assay
[1] = biological target: T1, human insulin-like growth factor-1 receptor (HIGF-1R) (human, UniProt P08069 31-1367); assay: 125I-IGF-1 displacement, PEG-assay
T1 construct: Detergent-solubilised receptor purified on WGA-agarose; also called HIGFIR
T1 sequence (P08069 31-1367 limits assumed): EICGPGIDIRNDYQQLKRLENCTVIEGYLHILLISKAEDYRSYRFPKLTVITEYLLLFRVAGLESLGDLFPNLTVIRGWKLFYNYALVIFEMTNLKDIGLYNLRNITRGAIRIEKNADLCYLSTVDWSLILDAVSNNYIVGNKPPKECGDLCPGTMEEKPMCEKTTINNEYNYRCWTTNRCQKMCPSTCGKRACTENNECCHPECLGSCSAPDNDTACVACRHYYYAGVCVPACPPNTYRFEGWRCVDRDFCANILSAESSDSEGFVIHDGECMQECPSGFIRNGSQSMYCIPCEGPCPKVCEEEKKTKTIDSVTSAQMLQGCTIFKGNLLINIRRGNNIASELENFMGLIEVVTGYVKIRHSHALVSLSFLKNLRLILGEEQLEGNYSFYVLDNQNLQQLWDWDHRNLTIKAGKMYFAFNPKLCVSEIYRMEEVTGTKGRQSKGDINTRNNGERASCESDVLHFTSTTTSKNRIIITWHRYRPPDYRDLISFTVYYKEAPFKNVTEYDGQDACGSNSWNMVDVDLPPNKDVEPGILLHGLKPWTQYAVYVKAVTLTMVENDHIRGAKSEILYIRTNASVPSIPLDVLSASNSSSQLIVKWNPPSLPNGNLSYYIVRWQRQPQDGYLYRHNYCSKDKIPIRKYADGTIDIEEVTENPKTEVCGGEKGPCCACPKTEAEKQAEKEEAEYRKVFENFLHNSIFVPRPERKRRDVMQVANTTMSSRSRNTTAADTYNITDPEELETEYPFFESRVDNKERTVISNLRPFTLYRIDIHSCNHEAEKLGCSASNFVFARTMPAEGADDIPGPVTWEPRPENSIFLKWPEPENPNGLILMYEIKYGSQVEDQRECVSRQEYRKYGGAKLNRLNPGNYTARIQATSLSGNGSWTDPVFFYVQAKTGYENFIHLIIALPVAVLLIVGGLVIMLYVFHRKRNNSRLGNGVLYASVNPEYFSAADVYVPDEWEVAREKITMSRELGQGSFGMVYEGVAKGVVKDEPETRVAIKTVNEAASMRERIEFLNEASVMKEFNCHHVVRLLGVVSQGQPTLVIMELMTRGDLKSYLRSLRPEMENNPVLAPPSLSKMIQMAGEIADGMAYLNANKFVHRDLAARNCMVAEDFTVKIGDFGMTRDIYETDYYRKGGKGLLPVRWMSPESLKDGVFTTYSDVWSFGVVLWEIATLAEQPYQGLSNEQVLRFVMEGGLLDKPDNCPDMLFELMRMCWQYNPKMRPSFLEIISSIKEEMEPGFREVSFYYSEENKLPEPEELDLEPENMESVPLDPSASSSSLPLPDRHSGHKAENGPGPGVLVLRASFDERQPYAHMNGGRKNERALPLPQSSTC
Procedure: IGF-1R affinity studies were generally performed as follows. […] The day before harvest cells were moved to serum free conditions and before harvest the cells were rinsed with and ice cold PBS solution. The cells were solubilized in cold lysis buffer (4 ml lysis buffer/1×10⁸ cells); vortexed vigorously to lysis in lysis buffer (50 mM Hepes (pH 8.0); 150 mM NaCl; 1% Triton X-100; 2 mM EDTA; 10 μg/mlaprotinin; 0.5 mM PEFABLOC (Roche)); and the lysate centrifuged at 4° C., 20000 rpm, for 15 minutes. […] In some cases, human insulin receptor (HIR) affinity for select test peptides was similarly measured.

[2] = biological target: T1, human insulin-like growth factor-1 …; assay: 125I-IGF-1 displacement, SPA-assay
Source text: In certain cases, a scintillation proximity assay (SPA assay) was used to determine IGF-1R affinity.

Sequence of IGF-1R on SW480 cells (P08069 31-1367 limits assumed): as above

| Binder | Kd [1] | other results |
| --- | --- | --- |
| SFYSCLESLVNGPAEKSRGQWDGCR [F249] |  | IC50 in SW480 (M) in presence of IGF-1 (IGF-1R on SW480 cells): > 1e-05 M; IC50 in SW480 (M), peptide alone (IGF-1R on SW480 cells): > 1e-05 M |
| VQDDCRGRPCGDADSFYEWFDQQAS [F263, listing 1 of 2 here] |  | IC50 in SW480 (M) in presence of IGF-1 (IGF-1R on SW480 cells): > 1e-06 M; IC50 in SW480 (M), peptide alone (IGF-1R on SW480 cells): > 1e-06 M |
| RQWDCRGRPCGDAESFYEWFDQQRS [F264] |  | IC50 in SW480 (M) in presence of IGF-1 (IGF-1R on SW480 cells): > 1e-05 M; IC50 in SW480 (M), peptide alone (IGF-1R on SW480 cells): > 1e-05 M |
| ELQGFCELLATVTGVTGLGCLDYQPIE [F202] |  | IC50 in SW480 (M) in presence of IGF-1 (IGF-1R on SW480 cells): > 1e-05 M |
| EEGVDEVRAWLWCQISGLGCESEEX (C-terminal Lig (lysine with a 2-aminohydroxyacetyl group on the epsilon amino group)) [F191] | 54 µM |  |
| XEESFYSCLESLVNGGAERSDGQWEGCREE (N-terminal Lig (lysine with a 2-aminohydroxyacetyl group on the epsilon amino group)) [F194] |  | Kd [2]: 55 µM |
| ELSFACLLSQLSGVVLPDCLLGEDE [F201] | 43 µM |  |
| EGRVDDAFYEWFERQLGE [F213] | 0.8 µM |  |
| ESFYSCLESLVNGPAEKSRGQWDGCRE [F215] | 82 µM |  |
| EWLEQERAWIWCEIQGSGCRAE [F216] | 10 µM |  |
| ETFYKCLASVLTGSTQTKRRPWEGCREE [F229] | 37 µM |  |
| ESFYSCLASLVAGTPWPKGGSWERCREE [F230] | 20 µM |  |
| SFYSCLESLVNGPAEKSRGQWDGCRK [F250] | 42 µM |  |
| F254 (cysteine pairing not given here, 111 conjugated by POX) peptide: ESFYSCLESLVAGPAEKSRGQWEGCR[AEEA][AEEA]GYSWLRDVLMEKQAQLKREGSVGRQE |  | Kd [2]: 82 µM |
| VQDDCRGRPCGDADSFYEWFDQQAS [F263, listing 2 of 2 here] |  | Kd [2]: 2.5 µM |
| ESYGDCRDRPCGDAPNFYDWFVQQASE [F270] |  | Kd [2]: 7 µM |
| DDDKGSLDESFYDWFERQLGTFYSCLASLLTGTPQPNRGPWERCR [F110] | 1 µM |  |
| XGSLDESFYDWFERQLGKK (N-terminal Lig (lysine with a 2-aminohydroxyacetyl group on the epsilon amino group)) [F119] | 1 µM |  |
| FFYRCLSRLLGGQLGSRLGLSCIGD [F139] | 8 µM |  |
| TFYSCLASLLTGPREQNRGAWERCRR [F142] | 0.04 µM |  |
| GVRAMSFYDALVSVLGLGPSG [F157] | 2 µM |  |
| VEGRGLFYDLLRQLLARRQNG [F158] | 0.9 µM |  |
| KLHNLMFYYGLQRLVWGAGLG [F159] | 5 µM |  |
| EDHRLCGTDEYLMQDLFVRGLCRLIWE [F164] | 4 µM |  |
